# Measured values reported in the nanobody polyreactivity screen of Harvey et al. (2022).
# Assay: yeast display, Sf9 membrane polyspecificity reagent, FACS + sequencing; frameworks hold sequencing errors
# Method in brief: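 Galactose-induced (36–48 hours) yeast carrying a synthetic nanobody display library were exposed to 10% biotinylated, detergent-solubilized Sf9 membrane reagent at 4 °C for 1 hour. FACS followed streptavidin microbead enrichment, using low and high (top ~1%) gates for expression (anti-HA) and reagent binding (streptavidin). Colony PCR, MiSeq 2 × 250 sequencing and CDR-length filtering followed. Labels for polyreactivity reflect the gate of origin.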
row,Sequence,polyreactivity (PSR sort gate)
1,QVQLVESGGGLVQEGGSLRLSCAASGSLFDVYAMGWYRQAPGKERELVAAISSSGSTYYADSVKGRFTISRDNAKNTVYLQMNSLKPEDTAVYYCAADQADDDDYYYWGQGTQVTVSS,low polyreactivity
2,QVQLVESGGGLVQEGGSLRLSCAASGSTFRRNAMGWYRQAPGKERELVAAISTSGGTTYYADSVKGRFTISRDYAKNTVYLQMNSLKPEDTAVYYCAAGGKKRDDYWGQGTQVTVSS,high polyreactivity
3,QVQLVESGGGLVQEGGSLRLSCAASGSTFSFYAMGWYRQAPGKERELVAAIDSGGRTKYADSVKGRFTISRDNAKNTVYLQMNSLKPEDSEVYYCGAVFRGWWLYDYWGKGTQVTVSS,low polyreactivity
4,QVQLVESGGGLVQEGGSLRLSCAASGSTFVHYDMGWYRQAPGKERELVAGITDTDNHELRRLCEGRFTISRDKAKNTVYLQMNSLKPEDTAVYYCNADDTYYPLGGITGYDYWGQGTQVTVSS,low polyreactivity
5,QVQLVESGGGLVQEGGSLRLSCAASGYIFKYYAMGWYRQAPGKERELVAAIRYSGGITYYADSVKGRFTISRDNAKNTVYLQMQSLKPEDTAVSYCAADYIITYRSGRREYVYWGQGTQVTVSS,high polyreactivity
6,QVQLVESGGGLVQEGGSLRLSCAASGYIFYEYAMGWYRQAPGKERELVAAISYSGGSTYYADSVKGRFTISRDNAKNTVYLQMNSLKPEDTAVYYCAAVGSVRYREGYDYWGQGSQVTVSS,high polyreactivity
7,QVQLVESGGGLVQEGGSLRLSCAATGLTFVYYEMGWYRQAPGKERELVADITYIGTSTYYADSVKGRFTISLDNAKNTVYLQMNSLKPEDTEVYYCAAPFPIRSGESWRTDLGYDYWGQGTQVTVSS,low polyreactivity
8,QVQLVESGGGLVQEGGSLRLSCADSGFTSCDNDMGWYRQAPGKERELVAAISRGGSTNYADSVKGRFTISRDNAKNTFYLQMNSLKPEDSEVYYCATAAVTPVWYDYWGKGTQVTVSS,low polyreactivity
9,QVQLVESGGGLVQEGGSLRLSCASSGYTFPYYAMGWYRQAPGKERELVAAIRSGGGTNYADSVKGRFTISRDNAKNTVYLQMNSLKPEDTADYYCAKEWAGGLYDYWGQGTQVTVSS,low polyreactivity
10,QVQLVESGGGLVQEGGSLRLSCGASGSIFSCYAMGWYRQAPGKERELVAGITWSGGSTYYADSVKGRFTNSRDNAKNTVYLQMNSLKPEDTSVYYCAAKYYWYYSDSGIPLFDYWGQGTQVTVSS,low polyreactivity
11,QVQLVESGGGLVQEGGSLRLSCSASGRIFGSYAMGWNRPATGKERELVAAINSSGGRTYYADSVKGRFTISRDNAKNTVYLQMNSLKPDVTAVYYCNARRVYSQRYDYWGQGTQVTVSS,high polyreactivity
12,QVQLVESGGGLVQEGGSLRLSSAASGRTFGTNPMGWYRQAPGKERELVAAISTRDGSTYYADSVKGRFSISRDNAKNTVYLQMNSLKPEDTAVYYCNAVVRYYDWGYLDYDYWGQGTQVTVSS,low polyreactivity
13,QVQLVESGGGLVQEGGSLRLTCAASGRIFQRYAMGWYSPPPGKERELVAVITKRGGNTYYADSVKGRFTLSRDNAKNTVYLQMNSLKPEDTAVYYCATRSGRSTGDYWGQGTQVTVSS,high polyreactivity
14,QVQLVESGGGLVQEGGSLRLTCAASGRIFVYNAMGWYRQAPRKDRELVAAISWRGDGTYYADSVKGLFTISRDNAKITVYLQMNSLKPEDTAVYYCAADYVYYYHEYDYWGQGTQVTVSS,low polyreactivity
15,QVQLVESGGGLVQEGGSLRVSCAASGSTLIRNVMVRYRQAPGKERELVAVITYGVGSTYYADSVKGRFTISRDNAKNTVYLQMNSLKPEDTAVYYCNKDPLVFDYWGQGTQVTVSS,low polyreactivity
16,QVQLVESGGGLVQGGGSLRLSCAASGFIFDDNSMGWYRQAPGKERELVAAITSGGGSTYYADSVKGRFTISRDNAKNTVYLQMNSLKPEDTAVYYCNAVPSQHDEFDYWGQGTQVTVSS,low polyreactivity
17,QVQLVESGGGLVQGGGSLRLSCAASGITFGDYAMGWYRQAPGKERELVAGINWSGDGTYYADSVKGRFTISRDNAQNTDYLQLNSLKPEDTAVYNCAAETFYDYGGYDYWGQGTQVTVSS,low polyreactivity
18,QVQLVESGGGLVQGGGSLRLSCAASGRNFKYNTMGWYRQAPGKERDLVAAISLSSGSGGGTRYADSVKGRFTISRDNAKNSVYLQMNSLKPEDSAVYYCAARHRYTNEYDYWGHGTQVTVSS,low polyreactivity
19,QVQLVESGGGLVQGGGSLRLSCAASGSIFTYNAIRSYRQAPGKERELVAAINTSGSTNYADSVKGRFTLSRDNAKNTVYLQMNSVKPEVTAVYYCAAGIVVTGYDYWGHGTQVTVSS,low polyreactivity
20,QVQLVESGGGLVQGGGSLSLSCAASGSNFWRYAMGWYRQAPGKEMELVAVISDRGCITYYADSVKGRFTISRDNAKNTVYLQMNSLKPEDTAVYYCNAVDSDRSDPSEYDYWGQGTQVTLSS,low polyreactivity
21,QVQLVESGGGLVQPGGSLRLSCAASGFIFLGYAMGWYRQAPGKERELVATITWRGGSTYYADSVKGRFTISRDNAKNTVYLQMNSLIPEDTADYYCAATRGWLHSFARDDHDYWGQGTQVTVSS,high polyreactivity
22,QVQLVESGGGLVQPGGSLRLSCAASGFIFSYYVMGWYRQAPGKERELVAAITTSGDSTYYADSVKGRFTISRDNAKNSVYLQMNSLKPEDTAVYYCNTVYRYRYYWGQGTHVTVSS,high polyreactivity

row,Sequence,polyreactivity (PSR sort gate)
1,QVQLVESGGGLVQPGGSLRLSCAASGFTFYLYALGWYRQAPVKERELVASISSGGRTYYADSVKGRFTISRDNAKNTVYVQMNRLKPADTAVYYCAARRPAWYWSAYRYYSEMDYWGQGTQVTVSS,high polyreactivity
2,QVQLVESGGGLVQPGGSLRLSCAASGRIFYYYAMGWYRQAPGKERELVAAITWNGTSTYYADSVKGRFTISRDNAKNTVYLQMNSLKPEDTAVYYCAKSLRAYRHVIYGKPFYSWGQGTQVTVSS,low polyreactivity
3,QVQLVESGGGLVQPGGSLRLSCAASGSIFIVYAMGWYRQAPGQERELVAGISVRTGSTYYADSVKGRFTISRDNAKNTGYLQMNSLKPEDTAVYYCAAPGYTGLGRNYWGQGTQVTVSS,low polyreactivity
4,QVQLVESGGGLVQPGGSLRLSCAASGSIFPYYAKGWYRKAPGKERELVADITSSGGSTYYADSVMGRFTISRDNAKNTVYLQMNSLKPEDTAVYYCAADGAVVSSSRKFGYWGQGTQVTVSS,low polyreactivity
5,QVQLVESGGGLVQPGGSLRLSCAASGSIFTRNAMGWYRQAPGKERELVAAITKRGGSTYYADSVKGRFTISRDNAKNTVYLQMNSLKPEETAVYSCAADVYKYKHTQEYHVGRMDYWGQGTQVTVSS,low polyreactivity
6,QVQLVESGGGLVQPGGSLRLSCAASGSNFEPYAMGWYRQAPGKERELVAAISSGGSTNYADSVKGRFTISRDNAKNTVYLQMNSLKPEDTAVYFCAAAYYTVGWLFYDYWYPFAYYYWGQGTQVTVSS,low polyreactivity
7,QVQLVESGGGLVQPGGSLRLSCAASGSTFLVYAMGWYRQAPGKERELVAVIDNGGDTYYADSVKGRFTISRDNAKNTVYLPMNSMKPEDTEVYYCAADLSYLGYCEYDYWGQGTQVNVSS,low polyreactivity
8,QVQLVESGGGLVQPGGSLRLTCAAYGFIFGYNSMGWYSQAPGKERELVAAISSGGSTYYADSVNGLFTISRDNAKNTVYLQMNSVKPDDTAVYYCAVELGYPIQSDALWWDFEYWGQGTQVTVSS,low polyreactivity
9,QVQLVESGGGLVQPRGSLRLSCAASGSILGHYAMGWYRQAPGKERELVAAISWRGGTTYYADSVKGRFTISRDNAKNTVYLQMNSLKPEDTAVYYCNADVWVYPYDYWGQGTQVTVSS,low polyreactivity
10,QVQLVESGGGLVQSGGSHPLSCAASGRTFYSYAMRGYRQAPGKDSEFVAAIRRCGSSTYYADSVKGRFTISRDNAKNTVYLQMNSLKPEDTAVYYCNAAPYIYPIRGNYWGQGTQETVSS,high polyreactivity
11,QVQLVESGGGLVQSGGSLRLSCAASGCIFSKNAMGWYRPAPGKERELVAAISWSGGSTSYADSVKGRFTISRDNAKNTVYLQMNSLKPEDTAVYYCARVGAIPSRYGYWGQGTQVTVSS,high polyreactivity
12,QVQLVESGGGLVQSGGSLRLSCAASGFIFEAYAMGWYRQAPGKEMELVAAISSGGSTKYADSVKGRFTISRDNAKNSVYLQMNSLKPEDTAVYYCAKSSWTYGAYNYLGQGTQVTVSS,high polyreactivity
13,QVQLVESGGGLVQSGGSLRLSCAASGFTFRFYAMGWYSQAPGKEREMVAAITSSGGSTFYADSVKGRFTISRDNAKNTVYLQMNSLKPEDTAVYYCAASVGREVGWGQGTQVTVSS,high polyreactivity
14,QVQLVESGGGLVQSGGSLRLSCAASGFTLYYYAMGWYRQAPGKERELVARISGSSGRTYYADSVKGRFTISRDNAMNTFYLQMNSLKPEDTAVYFCAARYYTSATMDYWGQGTQVTVSS,high polyreactivity
15,QVQLVESGGGLVQSGGSLRLSCAASGIIFSRNAMGWYRQAPGKERELVAGITSSGGTTYYADSVKGRFTISRDNAKNTVYLQMNSLKPEDTAVYYCAAYSTQNYSYRRYYYWGQGTQVTVSS,high polyreactivity
16,QVQLVESGGGLVQSGGSLRLSCAASGITFDHYAMGWYRQAPGKERELVAAISVSGGRTYYADSVKGRFTISRDNAKNTVYLQMNSLKPEDTAVYYCAKVSQVRGFYYWGQGTQVTVSS,high polyreactivity
17,QVQLVESGGGLVQSGGSLRLSCAASGITLRRNAMVWYRQAPGKERELVASISSRGGTTYYADSVKGRFTISRDNAKNTDYLQMISQKPEDTAVYYCAAYRVQRLANTGYDYWGQGTQVTVSS,high polyreactivity
18,QVQLVESGGGLVQSGGSLRLSCAASGLTFKENVMGWYRQAPGKERELVAAISTGASTYYADSVKGRFTISRDNAKNTVYLQMNSLKPEDTAVYYCAKRVTRWYGYWGQGTQVTVSS,high polyreactivity
19,QVQLVESGGGLVQSGGSLRLSCAASGLTFMVYAMGWYRQAPGKEREFVAAITFSGGRTYYADSVKGRFTISRDNAKNTVYLQMNSLKPEDTAVYYCNAEAWSLGYDYWGQGTQVTVSS,low polyreactivity
20,QVQLVESGGGLVQSGGSLRLSCAASGRIFDYNAMGWYRQAPGKERELVAAINSGGSTYADSVKGRFTISRDNAKNTVYLQMNSLKPEDTAVYYCNATPQFATFTYDYCGQGTQVTVSS,low polyreactivity
21,QVQLVESGGGLVQSGGSLRLSCAASGRIFNIYAMGWYRPAPGKERELVAAISGSGGRTSYADSVKGRFTISRDNAKNTVYLQMNSLKPEDTAVYYCAADYSFYTSFRYDYWGQGTQVTVSS,low polyreactivity
